# Residue numbers refer to the chain shown, from its start. Read-outs that look alike come from different tables or passages of the source.
# T1: SufR6-229-His6 (holo, [4Fe-4S]) (Mycobacterium tuberculosis H37Rv, UniProt O53151 30-253)
# T1 sequence: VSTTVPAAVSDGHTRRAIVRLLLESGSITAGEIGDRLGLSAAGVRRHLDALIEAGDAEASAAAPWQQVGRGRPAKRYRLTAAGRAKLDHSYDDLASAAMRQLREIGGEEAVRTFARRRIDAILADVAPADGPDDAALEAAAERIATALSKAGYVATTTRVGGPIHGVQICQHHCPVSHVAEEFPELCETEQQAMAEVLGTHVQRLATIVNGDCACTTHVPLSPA
# T2: SufR-R75M (Mycobacterium tuberculosis H37Rv, UniProt O53151 30-253, R99M)
# T2 sequence: T1 sequence with R70M
# T3: SufR-M2 (AT-hook mutant) (Mycobacterium tuberculosis H37Rv, UniProt O53151 30-253, R99A;R101A)
# T3 sequence: T1 sequence with R70A, R72A
# T4: SufR-M1 (RRH motif mutant) (Mycobacterium tuberculosis H37Rv, UniProt O53151 30-253, R74A;R75A;H76A)
# T4 sequence: T1 sequence with R45A, R46A, H47A
# T5: SufR-R51A (Mycobacterium tuberculosis H37Rv, UniProt O53151 30-253, R75A)
# T5 sequence: T1 sequence with R46A
# B1: PsufR-PM (dsDNA)
# DNA 1: CCGATCAACGGAATTTTGTCGAAGTGATGTCACTAAAATCCCGGCGGTCT
# DNA 2: AGACCGCCGGGATTTTAGTGACATCACTTCGACAAAATTCCGTTGATCGG
# B2: PsufR 50-bp (dsDNA)
# DNA 1: CCGATCAACGGAATTTTGTCACACTGATGTTGTGAAAATCCCGGCGGTCT
# DNA 2: AGACCGCCGGGATTTTCACAACATCAGTGTGACAAAATTCCGTTGATCGG
# B3: PsufR-DM (dsDNA)
# DNA 1: B2 DNA 1 with T14C, T16G, A36C, A38G
# DNA 2: B2 DNA 2 with T13C, T15G, A35C, A37G
# Key:
# [1] = molecular target: Mtb SufR_(6-229)-His6 (Mycobacterium tuberculosis H37Rv); experiment: cryo-EM structure
# [2] = molecular target: T1, SufR6-229-His6 (holo, [4Fe-4S]); experiment: EMSA
# [3] = molecular target: T2, SufR-R75M; experiment: EMSA
# [4] = molecular target: T3, SufR-M2 (AT-hook mutant); experiment: EMSA
# [5] = molecular target: T4, SufR-M1 (RRH motif mutant); experiment: EMSA
# [6] = molecular target: T5, SufR-R51A; experiment: EMSA
# [7] = molecular target: T1, SufR6-229-His6 (holo, [4Fe-4S]); experiment: EMSA; remark: listed apart in the source
molecule,measurement,setting,value
Mtb SufR_(6-229)-His6 (domain or fragment),stoichiometry N,[1],2
B1,binding result,[2],binds
B2,binding result,[3],binds
same,binding result,[4],no binding
same,binding result,[5],no binding
same,binding result,[6],no binding
B3,binding result,[7],no binding

# From publication doi:10.64898/2025.12.26.696629
